This is an account of results in patent US20240336900A1, “METHODS AND COMPOSITIONS RELATED TO MODIFIED METHYLTRANSFERASES AND ENGINEERED BIOSENSORS” (BOARD OF REGENTS, THE UNIVERSITY OF TEXAS SYSTEM, priority 2023, published 2024).

Data set [1] can be described thus: Steady state kinetics of purified Nb4OMT variants. The format is biochemical. The conditions noted are these: for kcat: 3.5 nM enzyme, 500 μM SAM, 37° C., PBS pH 7.5; for Km: calculated by dividing kcat by kcat/Km. As to the method: Reactions for kinetics measurements were performed in triplicate for all enzyme variants. For each variant 1.5 ml reactions containing 3.5 nM of enzyme, 500 μM SAM, 2 mM CaCl2), and 15.625, 31.25, 62.5, 125, 250, or 500 μM norbelladine in PBS pH 7.5 were incubated at 37° C. for 4 hours. Every hour a 200 μl aliquot of each reaction was quenched by pipetting it into a 1.5 ml microcentrifuge tube with 20 μl of 2M HCl. The concentration of 4′-O-Methylnorbelladine was then determined using HPLC as described.
Kinetic data were fit in KinTek Explorer simulation and data fitting software v11 (Roy, 2018). The following minimal model was used as an input. Each line represents a step in the model and the forward reaction goes from left to right while the reverse reaction goes from right to left as written. • (1) E+S=ES • (2) ES=EP • (3) EP=E+P • (4) S=P2
3.5 nM enzyme and 15.625, 31.25, 62.5, 125, 250, and 500 M substrate. The output observable was defined as EP+P. Substrate oxidation was modeled in step (4) as irreversible with a best fit value from globally fitting data from all variants to derive k4=0.00547 min^−1.To get kout/Km and kcat: k−1, k−2, and k−3 were locked at 0 min-1 (irreversible reactions). k+3 was locked at 10,000 min-1 as to not limit the rate of turnover. k+1 and k+2 were used as variable parameters in the fitting. Under these conditions, k+2=kcat and k+1=kcat/Km. For estimates of 95% confidence intervals on kinetic parameters, confidence contour analysis was used with the FitSpace function in KinTek Explorer (Bhattacharya, 2015). Confidence contour plots are calculated by systematically varying a single rate constant and holding it fixed at a particular value while refitting the data, allowing other rate constants to float. The goodness of fit was scored by the resulting χ^2 value. The confidence interval is defined based on a threshold in χ^2 calculated from the F-distribution based on the number of data points and number of variable parameters to give the 95% confidence limits. For the data given in FIGS. 20A-20C, this threshold was 0.85 to estimate the upper and lower limits for each parameter. […] We then fit the data for these two variants to the model shown below, accounting for substrate inhibition.
As before, k+1 was allowed to float in the fitting to give kcat/Km, and k−1 was locked at 0 min^−1, k+2 was allowed to float in the fitting to give kcat, and k−2 was locked at 0 min^−1. k+3 was locked at 10,000 min^−1, and k−3 was locked at 0 min^−1. k+4 and k+6 were locked at 100 μM^−1 min^−1, and k−4 and k−6 were allowed to float in the fitting as linked parameters. k+5 was linked to k+1 and k−5 was locked at 0 min^−1. k−7 was locked at 0 min^−1, and k+7 was locked at 0.00547 min^−1.

Data set [2] is described as follows: HPLC and LC/MS analysis of in vivo Nb4OMT reaction supernatant. The format is cell-based, Escherichia coli. On the procedure:
Assay samples were filtered using a 0.2-um PTFE syringe filter prior to running the HPLC. The measurement of Norbelladine and 4-O'Methyl-norbelladine was performed using a Vanquish HPLC system (Thermo Fisher Scientific) equipped with a BDS Hypersil TM C18 (3.0×150 mm 2, 3 um) (Thermo Fisher Scientific) with detection wavelength 277 nm. The mobile phase consisted of 0.1% formic acid in water or 0.1% formic acid in acetonitrile over the course of 28 minutes under the following conditions: 10% organic (vol/vol) for 2 minutes, 10 to 30% organic (vol/vol) for 13 minutes, 30 to 90% organic (vol/vol) for 0.1 minutes, 90% organic (vol/vol) for 4.9 minutes, 90 to 10% organic (vol/vol) for 1 minute, and 10% organic (vol/vol) for 7 minutes. The flow rate was fixed at 0.8 ml min-1. A standard curve for norbelladine was prepared using synthesized norbelladine (see Chemical synthesis and NMR analysis of norbelladine). A standard curve for 4-O'Methyl-norbelladine was prepared using commercially available 4-O'Methyl-norbelladine.
Cells containing the plasmid expressing each Nb4OMT variant with the P150-RBS (RiboJ) promoter were transformed and plated onto an LB agar plate containing appropriate antibiotics. […]
Samples were analyzed using an Agilent 6530 Q-TOF LC-MS with a dual Agilent Jet Stream electrospray ionization source in positive mode. […]

Data set [3] can be described thus: Differential scanning fluorimetry. Type of data set: physicochemical. The conditions noted are these: for Tm: 5 μM protein, SYPRO Orange. On the procedure:
Purified Nb4OMT variants in the concentration of 5 μM were prepared in 96-well low-profile PCR plates (ABgene, Thermo Scientific). 10×SYPRO® Orange (Molecular Probes) was added into each well and mixed prior to measurement in an RT-PCR machine (LightCycler 480, Roche). The protein melting experiments were carried out with a continuous temperature acquisition mode using 10 acquisitions per 1° C. in each cycle from 20° C. to 95° C. The melting curves of the Nb4OMT variants were monophasic and Tm values were derived using Boltzmann equation.

Data set [4] is described as follows: Biosensor-linked O-methyltransferase activity assay. The format is cell-based, Escherichia coli. The note with it: single mutational designs; 25, 30, 37 °C; 100 uM, 1 mM norbelladine. As to the method: Nb4OMT was expressed with the P150-RBS (riboJ) promoter-RBS on the pReg-RamR plasmid backbone (no regulator present). Cells were co-transformed with both the 40MT plasmid and the 4NB reporter plasmid and plated on an LB agar plate containing appropriate antibiotics. Three individual colonies from each transformation were picked into LB and grown overnight. Resulting cultures were diluted 50-fold into 1 ml LB medium containing the indicated concentration of norbelladine in a 96-deep-well plate and were grown at the indicated temperature for 24 h. Subsequently, the fluorescence of cultures was measured in the same manner as previously described in Dose-response measurement above.

Residue numbers refer to the chain shown, from its start. In names and notes the source's numbering stands.

B1: Wild-type Nb4OMT: natural norbelladine 4′-O-Methyltransferase from Narcissus pseudonarcissus (protein)
chain: MGASIDDYSLVHKNILHSEDLLKYILETSAYPREHEQLKGLREVTEKHEWSSALVPADEGLFLSMLLKLMNAKRTIEIGVYTGYSLLTTALALPEDGKITAIDVNKSYYEIGLPFIQKAGVEHKINFIESEALPVLDQMLEEMKEEDLYDYAFVDADKSNYANYHERLVKLVRIGGAILYDNTLWYGSVAYPEYPGLHPEEEVARLSFRNLNTFLAADPRVEISQVSIGDGVTICRRLY
modifications: Description of sequence: Natural enzyme, norbelladine 4'-O-Methyltransferase
notes: natural norbelladine 4′-O-Methyltransferase from Narcissus pseudonarcissus
One may read the kcat as the maximal rate divided by the concentration of active sites. Broadly, the Km is the substrate concentration at which the rate is half of its maximum. Take B1: in data set [1], the kcat was found to be 1.22 s⁻¹ and the Km is 62 µM. Further, the regiospecificity entry in data set [2] (3-OMe-norbelladine identified as minor component) is listed as “not highly regiospecific”. Besides, in data set [3], the Tm was 52.8 °C.

B2: A53M mutant: Nb4OMT variant with mutation A53M (protein)
chain: B1 chain with A53M
modifications: Description of sequence: Improved enzyme variant A53M
Regarding B2, in data set [1], the “increase in keut relative to the wild-type enzyme” value is listed as > 2.1 fold, the “increase of kcal/Km relative to the wild-type enzyme” value is given as “about 2 fold”, the kcat is >3.17 s⁻¹ and the Km was < 90 µM. Moreover, in data set [1] (steady state kinetic data, highest norbelladine concentration), the substrate inhibition entry was “affected by substrate inhibition”. Besides, the “fluorescent signal relative to the wild-type enzyme” value in data set [4] was “significantly above the wild-type enzyme”. In data set [2] (relative to wild-type Nb4OMT), the “reduction of 3-O'Methyl-norbelladine off-product” value is recorded as “about 3 fold”. Further, in data set [3], the “increase in Tm relative to the wild-type enzyme” value came out at 1.7 °C and the Tm amounted to 54.5 °C.
